Residues, ends and D or L forms follow the SMILES beside them. No end group written: not given here. *: point of attachment. DOTA = O=C(O)CN1CCN(CC(=O)O)CCN(CC(=O)*)CCN(CC(=O)O)CC1
T1: COL3 (Mus musculus, UniProt P08121)
T1 construct: from tissue; host or cells: infarcted left-ventricular myocardium of female CD1 mice, in vivo
T1 sequence (P08121 155-1219 limits assumed): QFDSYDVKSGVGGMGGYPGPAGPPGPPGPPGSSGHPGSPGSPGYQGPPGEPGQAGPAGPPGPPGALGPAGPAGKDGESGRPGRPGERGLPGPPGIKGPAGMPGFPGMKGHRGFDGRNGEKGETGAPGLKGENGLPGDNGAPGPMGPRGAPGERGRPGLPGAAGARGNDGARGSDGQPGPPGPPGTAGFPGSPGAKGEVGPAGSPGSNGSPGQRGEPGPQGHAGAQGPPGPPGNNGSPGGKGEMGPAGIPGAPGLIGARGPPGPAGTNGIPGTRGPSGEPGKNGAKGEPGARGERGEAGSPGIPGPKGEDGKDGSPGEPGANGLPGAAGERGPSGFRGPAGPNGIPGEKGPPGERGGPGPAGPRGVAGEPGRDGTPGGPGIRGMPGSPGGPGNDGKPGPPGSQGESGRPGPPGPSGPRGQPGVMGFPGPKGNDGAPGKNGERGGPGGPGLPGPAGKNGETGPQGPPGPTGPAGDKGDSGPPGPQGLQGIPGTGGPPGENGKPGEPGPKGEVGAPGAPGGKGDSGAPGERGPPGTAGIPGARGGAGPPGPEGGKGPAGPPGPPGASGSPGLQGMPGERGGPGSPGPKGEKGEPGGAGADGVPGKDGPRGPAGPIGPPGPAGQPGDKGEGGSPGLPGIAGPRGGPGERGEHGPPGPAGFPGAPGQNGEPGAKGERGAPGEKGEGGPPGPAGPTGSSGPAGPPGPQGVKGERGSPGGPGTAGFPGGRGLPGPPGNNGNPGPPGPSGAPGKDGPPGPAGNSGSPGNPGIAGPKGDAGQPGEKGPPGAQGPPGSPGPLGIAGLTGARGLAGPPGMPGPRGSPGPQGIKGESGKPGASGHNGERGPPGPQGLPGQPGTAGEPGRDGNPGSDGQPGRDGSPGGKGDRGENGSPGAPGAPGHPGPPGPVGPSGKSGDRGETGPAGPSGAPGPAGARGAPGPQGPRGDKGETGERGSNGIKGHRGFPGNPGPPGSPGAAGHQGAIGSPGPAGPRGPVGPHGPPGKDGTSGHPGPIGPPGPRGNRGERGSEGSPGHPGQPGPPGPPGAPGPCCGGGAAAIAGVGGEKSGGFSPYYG

T2: Collagen type III (COL3) (Homo sapiens, UniProt P02461)
T2 chain: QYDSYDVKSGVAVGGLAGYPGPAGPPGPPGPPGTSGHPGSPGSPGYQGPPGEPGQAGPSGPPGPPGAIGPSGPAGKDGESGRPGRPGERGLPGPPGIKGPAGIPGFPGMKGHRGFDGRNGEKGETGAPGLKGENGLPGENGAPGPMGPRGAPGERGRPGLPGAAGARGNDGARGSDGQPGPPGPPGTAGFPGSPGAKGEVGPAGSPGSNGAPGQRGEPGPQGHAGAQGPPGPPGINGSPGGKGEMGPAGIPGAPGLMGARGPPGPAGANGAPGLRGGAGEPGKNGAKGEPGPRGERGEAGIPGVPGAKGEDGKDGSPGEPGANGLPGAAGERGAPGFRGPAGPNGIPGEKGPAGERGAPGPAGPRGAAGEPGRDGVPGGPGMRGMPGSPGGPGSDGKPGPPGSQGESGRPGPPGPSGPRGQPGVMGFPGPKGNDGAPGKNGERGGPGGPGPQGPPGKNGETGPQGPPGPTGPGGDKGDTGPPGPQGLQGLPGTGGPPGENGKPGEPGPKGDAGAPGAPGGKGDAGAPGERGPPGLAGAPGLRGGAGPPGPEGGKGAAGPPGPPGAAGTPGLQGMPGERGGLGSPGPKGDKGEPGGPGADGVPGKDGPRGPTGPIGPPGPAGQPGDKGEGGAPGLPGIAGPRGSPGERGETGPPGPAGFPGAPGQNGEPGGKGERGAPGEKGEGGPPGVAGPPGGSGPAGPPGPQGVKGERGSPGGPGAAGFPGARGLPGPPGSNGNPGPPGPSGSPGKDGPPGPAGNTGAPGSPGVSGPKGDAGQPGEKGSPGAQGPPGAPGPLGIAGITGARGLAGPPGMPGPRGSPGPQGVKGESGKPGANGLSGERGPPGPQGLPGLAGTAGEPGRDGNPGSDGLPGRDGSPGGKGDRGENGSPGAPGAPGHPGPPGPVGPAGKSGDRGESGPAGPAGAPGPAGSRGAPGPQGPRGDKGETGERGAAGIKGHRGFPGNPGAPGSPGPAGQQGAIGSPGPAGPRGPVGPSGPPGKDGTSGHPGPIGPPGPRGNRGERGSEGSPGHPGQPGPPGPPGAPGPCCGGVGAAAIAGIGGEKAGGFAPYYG


How the values were obtained:
[1] = design: species or system mice; conditions: mouse, in vivo, iv
Description: Gallium-68 (^68Ga) was eluted from the generators onsite at the time of the experiments. Radiolabelling of the respective DOTAMA-CBP compound was performed as follows: DOTAMA-CBPs were dissolved in water (Baxter water for irrigation) to a final concentration 4 mg/mL. In an Eppendorf, 25 µL of the DOTAMA-CBP solution was added. Sodium acetate (30%NaOAc, 20 µL, pH 5) buffer was added to this solution followed by the addition of 200 µL ^68Ga (~100 MBq). The solution was then heated to 50 °C for 30 min. After the reaction was removed from heat, the pH was adjusted to pH 7 by adding sodium bicarbonate (1 M, 10 µL). Labelling efficiency was followed by radio thin-layer chromatography (TLC) and HPLC. Radio TLCs were performed using silica gel IBF-2 Baker plates, 10% NH4OAc 50:50 in MeOH with 5 µL of the sample added. For the HPLC, a C18 column was used (MeCN + 0.1% TFA and H2O + 0.1% TFA, gradient) with 10 µL of the sample measured.
In vivo biodistribution imaging was carried out using a positron emission tomography/computed tomography (PET/CT) scanner (NanoPET/CT scanner; Mediso, Hungary. Male apolipoprotein E knockout (ApoE^−/−) were anesthetised with 4% isoflurane mixed with 1% medical oxygen and maintained at 2% isoflurane for the PET/CT experiment. Mice were injected intravenously (i.v.) with either ^68Ga-DOTAMA-CBP1 or ^68Ga-DOTAMA-CBP2 (12MBq/mouse for both probes). To verify anatomical structures, CT images were obtained after the PET imaging with a 55 kVp voltage. PET images were acquired continuously up to 90 min post-injection with a 256 × 256 matrix size and a resolution of 1 mm/pixel. PET and CT images were reconstructed using the manufacturer software with a voxel size of 0.4 mm and analysed with a VivoQuant 2.5 software (Invicro, Boston, MA, USA). The data acquired with the CBP1 and CBP2 imaging probes were reconstructed in 15-minute bins up to 90 min. The PET/CT images were merged using the software’s automated fusion function. Additionally, the software was used for region-of-Interest (ROI) analysis and results were reported as %ID/g for each organ. Following the in vivo PET/CT imaging, the animals were euthanised and tissues extracted for ex vivo gamma counting (1282 CompuGamma gamma counting, LKB Wallac, Finland).

COL3 remodelling = test: Enalapril treatment after myocardial infarction, read out by COL3 molecular CMR and cine MRI; assay type: in vivo, mice
COL3 = molecular target: T1, COL3; test: In vivo MRI of the aortic wall in a murine model of vascular remodelling; conditions: ApoE−/− mice after aortic injury and 12 weeks high-fat diet, i.v. 0.2 mmol/kg, LGE MRI at 3 T up to 2 h post-injection
Source text: Male ApoE^−/− mice were bred in-house and underwent surgery at 8–10 weeks of age (n = 6). Mice were anesthetised with 4% isoflurane mixed with 1% medical oxygen and anaesthesia was maintained at 2% during the surgery as previously reported. Briefly, mice underwent a laparotomy to expose the abdominal aorta, renal and iliac arteries. Two ligatures were inserted around the aorta (surgical silk, size 4–0, Aragó, Zaragoza, Spain), the first below the renal arteries and the second above the iliac bifurcation. A 30 G needle was introduced into the abdominal aorta at the level of the iliac bifurcation, via an aortic puncture. 1 mL of saline was infused into the aorta in three boluses. Finally, the needle was removed, and the puncture was repaired. The muscle and skin incisions were sutured (5-0 Vicryl, Ethicon Inc, Somerville, NJ), and the animals were allowed to recover. Mice were switched to a high-fat diet (HFD) containing 21% fat from lard and 0.15% (wt/wt) cholesterol (Special Diets Services, Witham, United Kingdom), on day 2 post-surgery for 12 weeks prior to the imaging experiments.
Anaesthesia was induced with 4% and maintained with 1–2% isoflurane during the MRI experiments. Mice (n = 3 per group) were placed supine on a single-loop surface coil (diameter = 47 mm) and the abdominal aorta was imaged up to 2 h post-injection of the monomeric (i.v. 0.2 mmol/kg, 0.2 mmol/kg Gd), the next day with the corresponding tetrameric collagen-binding probe (i.v 0.2 mmol/kg, 0.8 mmol/kg Gd) and the 3rd day using the scrambled probes (n = 2–3 per probe; i.v. 0.2 mmol/kg). This timeline ensures complete washout of one probe from the tissue before the administration of another probe. […]

Collagen type III (COL3) = molecular target: T2, Collagen type III (COL3); test: Eu(III) time-resolved fluorescence plate assay

Molecule	route of elimination (in words) [1]	time within which most of the probe is eliminated from the blood (first phase clearance) [1] [min]	unspecific uptake in tissues (in words) [1]	Kd (Collagen type III (COL3)) [µM]	further results
CSCC[C@H](NC(=O)[C@H](CCCNC(=N)N)NC(=O)[C@H](CC(C)C)NC(=O)[C@@H]1CCCN1C(=O)[C@H](Cc1ccccc1)NC(=O)[C@H](CCC(=O)O)NC(=O)[C@@H](NC(=O)CN1CCN(CC(=O)O)CCN(CC(=O)O)CCN(CC(=O)O)CC1)[C@@H](C)O)C(=O)N[C@@H](CCCNC(=N)N)C(=O)N[C@@H](CC(=O)O)C(=O)N[C@@H](Cc1c[nH]c2ccccc12)C(=O)N[C@@H](CC(C)C)C(=O)N[C@@H](CCCCN)C(=O)N[C@@H](CC(N)=O)C(=O)O [^68Ga-DOTAMA-CBP2, metal not drawn] ({DOTA}-TEFPLRMRDWLKN-OH)	renal excretion	15 to 30	no significant unspecific uptake in tissues	–	–
CC(C)[C@H](NC(=O)[C@H](CCC(=O)O)NC(=O)[C@H](CO)NC(=O)[C@H](CCCCN)NC(=O)[C@H](CCCNC(=N)N)NC(=O)[C@H](C)NC(=O)[C@H](CC(=O)O)NC(=O)CN1CCN(CC(=O)O)CCN(CC(=O)O)CCN(CC(=O)O)CC1)C(=O)N[C@@H](CCC(N)=O)C(=O)N[C@@H](CCCCN)C(=O)O [^68Ga-DOTAMA-CBP1, metal not drawn] ({DOTA}-DARKSEVQK-OH)	renal excretion	15 to 30	no significant unspecific uptake in tissues	–	–
CCOC(=O)[C@H](CCc1ccccc1)N[C@@H](C)C(=O)N1CCC[C@H]1C(=O)O [enalapril]	–	–	–	–	volume of signal enhancement (LGE volume) at day 21 versus untreated mice (in words) (COL3 remodelling; enalapril 20 mg/kg/day in drinking water after MI, imaged with [Gd-DOTAMA]4-CBP1, n = 7 per group): significantly higher volume of signal enhancement; cardiac geometry and function versus untreated mice (in words) (COL3 remodelling; enalapril 20 mg/kg/day in drinking water, cine MRI, days 10 and 21 post-MI): no significant differences
Ac-C-EWFMKDRLLNRPT [[Gd-DOTAMA]4-SccCBP2, scrambled tetrameric Gd probe (Ac-C-…), negative control]	–	–	–	–	signal enhancement of the remodelled aortic wall (in words) (COL3): also showed signal enhancement
DARKSEVQK (not fully specified (N-terminus); also: Eu complexed by N-terminal DOTAMA) [Eu-DOTAMA-CBP1]	–	–	–	5.3	–
TEFPLRMRDWLKN (not fully specified (N-terminus); also: Eu complexed by N-terminal DOTAMA) [Eu-DOTAMA-CBP2]	–	–	–	4.8	–

Reference: PMC11408249, “Non-invasive in vivo imaging of changes in Collagen III turnover in myocardial fibrosis” (npj Imaging, 2024)
